The record followed here is patent publication US20240116985A1, “STAPLED PEPTIDES AND METHODS THEREOF” (priority 2020, published 2024).

To fix the notation:
B1: I-1395 (peptide)
peptide: Ac-[αAllylPro]D[tBuAla][B5(19)]DDAAF[hSer][S8][Phe(2-Cl)][Bta]Q-NH2
modifications: staple 1-4, 4-11
B2: I-1397 (peptide)
peptide: Ac-[αAllylPro]D[tBuAla][B5(19)]DDAAF[hSer][S8][Phe(2-CF3)][Bta]Q-NH2
modifications: staple 1-4, 4-11
B3: I-1407 (peptide)
peptide: Ac-[αAllylPro]DL[B5(12)]D[Phe(3-COOH)]AAF[Nle][PyrS2″][3Thi][Bta]Q-NH2
modifications: staple 1-4, 4-11
B4: I-1409 (peptide)
peptide: Ac-[αAllylPro]D[tBuAla][B5(12)]DDAAFL[PyrS2″][3Thi][Bta]L-NH2
modifications: staple 1-4, 4-11
B5: I-1406 (peptide)
peptide: Ac-[αAllylPro]DL[B5(12)]D[Phe(3-COOH)]AAFL[PyrS2″][3Thi][Bta]Q-NH2
modifications: staple 1-4, 4-11
B6: I-1410 (peptide)
peptide: Ac-[αAllylPro]DL[B5(12)]DDAAFL[PyrS2″][3Thi][Bta]L-NH2
modifications: staple 1-4, 4-11
B7: I-1401 (peptide)
peptide: Ac-[αAllylPro]D[Nle][B5(19)]DDAAF[Nle][PyrS2][3Thi][Bta]Q-NH2
modifications: staple 1-4, 4-11
B8: I-1411 (peptide)
peptide: Ac-[αAllylPro]D[Nle][B5(12)]DDAAFL[PyrS2″][3Thi][Bta]L-NH2
modifications: staple 1-4, 4-11; also: staple isomer, earlier eluting HPLC peak
B9: I-1405 (peptide)
peptide: Ac-[αAllylPro]D[Nle][B5(12)]DDAAF[Nle][PyrS2″]F[Bta]Q-NH2
modifications: staple 1-4, 4-11
B10: I-1404 (peptide)
peptide: Ac-[αAllylPro]DL[B5(12)]DDAAF[Nle][PyrS2″]F[Bta]Q-NH2
modifications: staple 1-4, 4-11
B11: I-1412 (peptide)
peptide: Ac-[αAllylPro]D[Nle][B5(12)]DDAAFL[PyrS2″][3Thi][Bta]L-NH2
modifications: staple 1-4, 4-11
B12: I-1283 (peptide)
peptide: Ac-[αAllylPro]D[tBuAla][B5(5)]DEAAFK(iPr)[PyrS2][Phe(2-Cl)][Bta]L-NH2
modifications: staple 1-4, 4-11
B13: I-2384 (peptide)
peptide: Ac-[αAllylPro]D[tBuAla][B5(5)]D[Phe(3-COOH)]AAFL[PyrS2″][Phe(2-CF3)][Bta]QLS-NH2
modifications: staple 1-4, 4-11
B14: I-2380 (peptide)
peptide: Ac-[αAllylPro]D[tBuAla][B5(5)]D[Phe(3-COOH)]AAFL[PyrS2″][Phe(2-CF3)][Bta]QLL-NH2
modifications: staple 1-4, 4-11
B15: I-2392 (peptide)
peptide: Ac-[αAllylPro]D[tBuAla][B5(5)]D[Phe(3-COOH)]AAFL[PyrS2][Phe(2-CF3)][Bta]QLY-NH2
modifications: staple 1-4, 4-11
B16: I-2383 (peptide)
peptide: Ac-[αAllylPro]D[tBuAla][B5(5)]D[Phe(3-COOH)]AAFL[PyrS2″][Phe(2-CF3)][Bta]QLT-NH2
modifications: staple 1-4, 4-11
B17: I-2381 (peptide)
peptide: Ac-[αAllylPro]D[tBuAla][B5(5)]D[Phe(3-COOH)]AAFL[PyrS2″][Phe(2-CF3)][Bta]QLF-NH2
modifications: staple 1-4, 4-11
B18: I-2035 (peptide)
peptide: Ac-[αAllylPro]D[tBuAla][B5(3)]D[Phe(3-COOH)]AAFA[PyrS2″][Phe(2-Cl)][Bta]N-NH2
modifications: staple 1-4, 4-11; also: staple isomer, earlier eluting HPLC peak
B19: I-2033 (peptide)
peptide: Ac-[αAllylPro]D[tBuAla][B5(3)]D[Phe(3-COOH)]AAFN[PyrS2″][Phe(2-Cl)][Bta]F-NH2
modifications: staple 1-4, 4-11
B20: I-2044 (peptide)
peptide: Ac-[αAllylPro]D[tBuAla][B5(3)]D[Phe(3-COOH)]AAFF[PyrS2″][3Thi][Bta]N-NH2
modifications: staple 1-4, 4-11
B21: I-2050 (peptide)
peptide: Ac-[αAllylPro]D[tBuAla][B5(3)]D[Phe(3-COOH)]SAFL[PyrS2″][3Thi][Bta]A-NH2
modifications: staple 1-4, 4-11
B22: I-2045 (peptide)
peptide: Ac-[αAllylPro]D[tBuAla][B5(3)]D[Phe(3-COOH)]AAFS[PyrS2″][3Thi][Bta]N-NH2
modifications: staple 1-4, 4-11
B23: I-2041 (peptide)
peptide: Ac-[αAllylPro]D[tBuAla][B5(3)]D[Phe(3-COOH)]AAFL[PyrS2″][Phe(2-Cl)][Bta]NAA[dA]-NH2
modifications: staple 1-4, 4-11
B24: I-2036 (peptide)
peptide: Ac-[αAllylPro]D[tBuAla][B5(3)]D[Phe(3-COOH)]AAFA[PyrS2″][Phe(2-Cl)][Bta]N-NH2
modifications: staple 1-4, 4-11
B25: I-2040 (peptide)
peptide: Ac-[αAllylPro]D[tBuAla][B5(3)]D[Phe(3-COOH)]AAFL[PyrS2″][Phe(2-Cl)][Bta]NAAA-NH2
modifications: staple 1-4, 4-11
B26: I-2043 (peptide)
peptide: Ac-[αAllylPro]D[tBuAla][B5(3)]D[Phe(3-COOH)]AAFL[PyrS2″][3Thi][Bta]N-NH2
modifications: staple 1-4, 4-11
B27: I-2042 (peptide)
peptide: Ac-[αAllylPro]D[tBuAla][B5(3)]D[Phe(3-COOH)]AAFA[PyrS2″][3Thi][Bta]N-NH2
modifications: staple 1-4, 4-11
B28: I-2037 (peptide)
peptide: Ac-[αAllylPro]D[tBuAla][B5(3)]D[Phe(3-COOH)]AAFF[PyrS2″][Phe(2-Cl)][Bta]N-NH2
modifications: staple 1-4, 4-11

Starred links: 1 amine or outer side, 2 acyl side, 3 side chain; linkers in the order of their positions; H or OH if unused. Positions of bridges follow the written chain, without caps; N, C: chain ends. Non-standard residues stand in square brackets, D forms with d. Primed or numbered codes have the meaning given here. *: point of attachment. PyrS2″ = (S)-3-amino-1-((pent-4-en-1-yloxy)carbonyl)pyrrolidine-3-carboxylic acid (stapling residue), C=CCCCOC(=O)N1CC[C@@](N[*:1])(C(=O)[*:2])C1; B5(5) = 2,2-bis(4-pentenyl)glycine, 2-amino-2-(pent-4-en-1-yl)hept-6-enoic acid (stitching residue), C=CCCCC(CCCC=C)(N[*:1])C(=O)[*:2]; PyrS2 = (S)-3-amino-1-((pent-4-en-1-yloxy)carbonyl)pyrrolidine-3-carboxylic acid, C=CCCCOC(=O)N1CC[C@@](N[*:1])(C(=O)[*:2])C1; B5(12) = 2-amino-2-(pent-4-en-1-yl)hept-6-enoic acid (two olefin side chains), C=CCCCC(CCCC=C)(N[*:1])C(=O)[*:2]; B5(19) = 2-amino-2-(pent-4-en-1-yl)hept-6-enoic acid (bis(4-pentenyl)glycine), C=CCCCC(CCCC=C)(N[*:1])C(=O)[*:2]; B5(3) = 2,2-bis(4-pentenyl)glycine (stitching residue), C=CCCCC(CCCC=C)(N[*:1])C(=O)[*:2]; Phe(3-COOH) = N[C@@H](Cc1cccc(C(=O)O)c1)C(=O)O; Phe(2-CF3) = N[C@@H](Cc1ccccc1C(F)(F)F)C(=O)O; Phe(2-Cl) = N[C@@H](Cc1ccccc1Cl)C(=O)O; Bta = N[C@@H](Cc1csc2ccccc12)C(=O)O; αAllylPro = C=CC[C@@]1(C(=O)O)CCCN1; tBuAla = CC(C)(C)C[C@H](N)C(=O)O; 3Thi = N[C@@H](Cc1ccsc1)C(=O)O; S8 = C=CCCCCCC[C@](C)(N)C(=O)O; hSer = N[C@@H](CCO)C(=O)O; Nle = CCCC[C@H](N)C(=O)O; iPr = CC(C)*

For one assay, the target named is full-length beta-Catenin (Uniprot ID P35222) (Homo sapiens (Human)) (UniProt P35222). Description: FP competition; full-length beta-catenin, competitor 5FAM-TCF4(10-53).
Target sequence in this assay (P35222 whole entry, one chain of several): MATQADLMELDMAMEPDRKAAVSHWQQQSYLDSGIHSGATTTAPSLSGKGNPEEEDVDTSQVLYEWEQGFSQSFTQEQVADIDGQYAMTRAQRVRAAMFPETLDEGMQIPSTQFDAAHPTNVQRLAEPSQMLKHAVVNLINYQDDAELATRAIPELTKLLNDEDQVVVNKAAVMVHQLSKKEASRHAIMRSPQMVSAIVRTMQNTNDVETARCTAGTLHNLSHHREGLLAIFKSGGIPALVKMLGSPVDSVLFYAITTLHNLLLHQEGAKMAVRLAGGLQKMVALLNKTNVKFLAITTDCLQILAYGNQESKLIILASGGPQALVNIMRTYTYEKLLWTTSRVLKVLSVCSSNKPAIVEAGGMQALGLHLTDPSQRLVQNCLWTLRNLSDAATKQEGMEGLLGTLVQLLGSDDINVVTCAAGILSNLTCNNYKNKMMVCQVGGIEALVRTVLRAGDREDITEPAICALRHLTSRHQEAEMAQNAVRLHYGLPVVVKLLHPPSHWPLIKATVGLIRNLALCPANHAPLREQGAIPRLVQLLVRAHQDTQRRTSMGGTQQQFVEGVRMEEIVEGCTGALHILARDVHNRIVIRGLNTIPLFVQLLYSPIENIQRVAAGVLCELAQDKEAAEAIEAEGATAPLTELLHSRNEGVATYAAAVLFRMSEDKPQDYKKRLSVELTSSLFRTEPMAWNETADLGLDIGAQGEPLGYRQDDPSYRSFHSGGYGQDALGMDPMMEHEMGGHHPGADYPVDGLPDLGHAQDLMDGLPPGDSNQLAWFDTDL
As to B1, the EC50 (in general, the midpoint of the concentration-response curve) is 33 nM.

Consider B2, for which the EC50 is 48 nM.

The next assay shares this target. Briefly: fluorescence polarization competition; full-length beta-catenin, competitor 5FAM-TCF4 10-53 probe. (Fluorescence polarisation rises when a labelled molecule tumbles more slowly, as on binding a larger partner.)
Target sequence in this assay (P35222 2-781 limits assumed): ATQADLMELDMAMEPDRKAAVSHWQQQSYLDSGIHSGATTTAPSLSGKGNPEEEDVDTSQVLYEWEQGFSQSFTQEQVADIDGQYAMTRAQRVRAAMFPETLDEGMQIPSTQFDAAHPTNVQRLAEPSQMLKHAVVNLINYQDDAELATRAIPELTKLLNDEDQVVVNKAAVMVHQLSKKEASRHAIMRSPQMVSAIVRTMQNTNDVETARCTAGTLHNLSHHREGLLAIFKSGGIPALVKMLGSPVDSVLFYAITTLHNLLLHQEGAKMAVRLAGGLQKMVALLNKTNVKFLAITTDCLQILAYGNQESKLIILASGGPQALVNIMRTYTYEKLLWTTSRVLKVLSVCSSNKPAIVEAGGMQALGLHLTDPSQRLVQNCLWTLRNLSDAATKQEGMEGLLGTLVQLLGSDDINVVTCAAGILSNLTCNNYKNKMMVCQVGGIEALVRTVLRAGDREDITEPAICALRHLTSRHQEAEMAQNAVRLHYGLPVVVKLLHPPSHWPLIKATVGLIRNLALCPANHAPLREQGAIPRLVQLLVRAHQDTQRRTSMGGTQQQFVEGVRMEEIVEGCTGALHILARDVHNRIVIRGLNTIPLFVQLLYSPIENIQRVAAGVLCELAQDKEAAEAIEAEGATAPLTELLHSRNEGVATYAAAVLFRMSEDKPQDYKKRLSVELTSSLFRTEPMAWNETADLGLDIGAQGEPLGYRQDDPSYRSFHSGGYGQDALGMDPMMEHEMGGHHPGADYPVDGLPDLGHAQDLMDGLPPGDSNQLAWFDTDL
Regarding B3, the IC50 (commonly the concentration that inhibits the measured activity by half) worked out at 5 nM.

With B4, the IC50 came to 74 nM.

B5 had an IC50 of 6 nM.

In the case of B6, the IC50 came to 80 nM.

The molecule B7 returned an IC50 of 5 nM.

Turning to B8, the IC50 stood at 109 nM.

Consider B1, for which the IC50 is 33 nM.

B2 displayed an IC50 of 48 nM.

Take B9: the 50% inhibitory concentration (IC50) came to 9 nM.

The molecule B10 gave an IC50 of 113 nM.

The molecule B11 registered an IC50 of 79 nM.

Another assay has the same target. Briefly: fluorescence polarization competition; full-length beta-catenin + 5FAM-TCF4(10-53) probe.
Target sequence in this assay (P35222 whole entry, one chain of several): as the sequence (P35222 whole entry, one chain of several) above
With B12, the EC50 is 26 nM.

The target of the next assay is Bcat-Halo (UniProt P35222). Briefly: NanoBRET Abs IC50, HEK293 cells; Bcat-Halo / TCF4-Luc engagement. (In BRET a luciferase serves as donor, and the signal depends on an acceptor being close.)
Bcat-Halo, sequence (P35222 whole entry): as the sequence (P35222 whole entry, one chain of several) above
In the case of B13, the IC50 was found to be 4600 nM.

With B14, the IC50 is 2700 nM.

B15 had an IC50 of 8600 nM.

B16 registered an IC50 of 4200 nM.

As to B17, the IC50 amounted to 2100 nM.

The target of the next assay is Bcat-Halo (beta-catenin HaloTag construct expressed in HEK293 cells) (UniProt P35222). Briefly: NanoBRET Abs IC50 in HEK293 cells; B-cat-Halo with competitor TCF4-Luc.
Bcat-Halo (beta-catenin HaloTag construct expressed in HEK293 cells), sequence (P35222 whole entry): as the sequence (P35222 whole entry, one chain of several) above
In turn, B3 registered an IC50 of 4200 nM.

B4 gave an IC50 of 24000 nM.

For the molecule B5, the IC50 was found to be 5000 nM.

B6: the IC50 came to 29300 nM.

In turn, B7 came in with an IC50 of 21400 nM.

Consider B8, for which the IC50 is 47100 nM.

The molecule B1 showed an IC50 of 15400 nM.

Molecule B2 came in with an IC50 of 16400 nM.

On to B9, for which the IC50 came out at 40100 nM.

B10 registered an IC50 of 36800 nM.

The molecule B11 had an IC50 above 20000 nM.

The target of another assay is full-length beta-Catenin (Uniprot ID P35222) (Homo sapiens (Human)) (UniProt P35222). Briefly: fluorescence polarization competition; full-length beta-catenin, competitor 5FAM-TCF4(10-53).
Target sequence in this assay (P35222 2-781 limits assumed): as the sequence (P35222 2-781 limits assumed) above
Molecule B13 displayed an IC50 of 5 nM.

As for B14, the IC50 worked out at 330 nM.

Take B15: the IC50 worked out at 462 nM.

In turn, B16 returned an IC50 of 77 nM.

Molecule B17 had an IC50 of 1470 nM.

The target is the same in another assay. Briefly: fluorescence polarization competition against 5FAM-TCF4 (10-53) on full-length beta-catenin.
Target sequence in this assay (P35222 2-781 limits assumed): as above
On to B18, for which the IC50 amounted to 16 nM.

The molecule B19 had an IC50 of 30 nM.

Regarding B20, the IC50 is 9 nM.

Consider B21, for which the IC50 worked out at 9 nM.

The molecule B22 came in with an IC50 of 5 nM.

B23 yielded an IC50 of 16 nM.

For the molecule B24, the IC50 is 19 nM.

Molecule B25 displayed an IC50 of 24 nM.

The molecule B26 yielded an IC50 of 8 nM.

In turn, B27 had an IC50 of 9 nM.

The molecule B28 showed an IC50 of 17 nM.

A further assay shares this target. Description: fluorescence polarization competition against 5FAM-TCF4(10-53) on full-length beta-catenin.
Target sequence in this assay (P35222 whole entry, one chain of several): as the sequence (P35222 whole entry, one chain of several) above
With B12, the IC50 stood at 26 nM.

In a further assay the target is beta-catenin (Homo sapiens (Human)) (UniProt P35222). Description: fluorescence polarization competition; full-length beta-catenin with 5FAM-TCF4(10-53) probe as competitor.
beta-catenin (Homo sapiens (Human)), sequence (P35222 whole entry): as the sequence (P35222 whole entry, one chain of several) above
Molecule B3 returned an EC50 of 5 nM.

Molecule B4 gave an EC50 of 74 nM.

Consider B5, for which the concentration for a half-maximal effect (EC50) amounted to 6 nM.

As to B6, the EC50 is 80 nM.

In the case of B7, the EC50 is 5 nM.

Molecule B8 showed an EC50 of 109 nM.

Turning to B9, the EC50 came to 9 nM.

Molecule B10 yielded an EC50 of 113 nM.

As for B11, the EC50 came out at 79 nM.

The next assay has as its target Bcat-Halo (UniProt P35222). Description: NanoBRET Abs IC50, HEK293 cells, Bcat-Halo/TCF4-Luc; competitor TCF4-Luc.
Molecule B12 showed an IC50 of 38600 nM.

The target in another assay is full-length beta-Catenin (Uniprot ID P35222) (Homo sapiens (Human)) (UniProt P35222). Briefly: cell-based or functional assay.
Target sequence in this assay (P35222 2-781 limits assumed): as the sequence (P35222 2-781 limits assumed) above
The molecule B13 showed a DLD1 4% Abs IC50 of 1100 nM.

For the molecule B14, the DLD1 4% Abs IC50 came to 1500 nM.

Molecule B16 displayed a DLD1 4% Abs IC50 of 800 nM.

In turn, B17 had a DLD1 4% Abs IC50 of 1100 nM.
